Results as given in article PMC7565926, “Oncogenic Orphan Nuclear Receptor NR4A3 Interacts and Cooperates with MYB in Acinic Cell Carcinoma” (Cancers, 2020).

Biological target: HA-tagged NR4A3 (UniProt Q92570 1-626)
Experiment: cell-based or functional assay

Sequence of HA-tagged NR4A3 (Q92570 whole entry): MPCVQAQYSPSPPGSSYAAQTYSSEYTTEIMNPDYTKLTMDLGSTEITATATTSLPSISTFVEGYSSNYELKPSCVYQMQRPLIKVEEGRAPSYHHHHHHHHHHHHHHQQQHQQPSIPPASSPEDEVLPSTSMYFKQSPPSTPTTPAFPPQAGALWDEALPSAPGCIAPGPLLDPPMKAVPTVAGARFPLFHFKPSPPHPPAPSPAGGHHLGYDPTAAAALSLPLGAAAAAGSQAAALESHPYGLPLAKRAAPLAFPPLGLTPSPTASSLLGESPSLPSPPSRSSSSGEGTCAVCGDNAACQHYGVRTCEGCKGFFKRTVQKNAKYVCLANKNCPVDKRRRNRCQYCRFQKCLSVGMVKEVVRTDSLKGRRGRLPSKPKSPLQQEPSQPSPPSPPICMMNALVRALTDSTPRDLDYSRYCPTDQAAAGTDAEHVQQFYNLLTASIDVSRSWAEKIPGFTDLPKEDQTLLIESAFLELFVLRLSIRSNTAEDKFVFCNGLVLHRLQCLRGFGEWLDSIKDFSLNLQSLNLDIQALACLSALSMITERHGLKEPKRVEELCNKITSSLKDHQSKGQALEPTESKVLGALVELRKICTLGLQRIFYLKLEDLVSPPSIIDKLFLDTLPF

B1: Myb (natural protein)
chain: not shown
B1 was tested, and the “activation of the NurRE luciferase reporter in HeLa cells on co-expression of full-length Myb with NR4A3 (NR4A3 by itself 6-fold)” value was 27 fold.
